Values of other authors as cited in paper PMC7768499.

Key:
IgA (Homo sapiens) = IgA (Homo sapiens) (UniProt P01876)
IgA1 (Homo sapiens) = IgA1 (Homo sapiens) (UniProt P01876)
IgA2 (Homo sapiens) = IgA2 (Homo sapiens) (UniProt P01877)
Sequence of IgA2 (Homo sapiens) (P01877 whole entry): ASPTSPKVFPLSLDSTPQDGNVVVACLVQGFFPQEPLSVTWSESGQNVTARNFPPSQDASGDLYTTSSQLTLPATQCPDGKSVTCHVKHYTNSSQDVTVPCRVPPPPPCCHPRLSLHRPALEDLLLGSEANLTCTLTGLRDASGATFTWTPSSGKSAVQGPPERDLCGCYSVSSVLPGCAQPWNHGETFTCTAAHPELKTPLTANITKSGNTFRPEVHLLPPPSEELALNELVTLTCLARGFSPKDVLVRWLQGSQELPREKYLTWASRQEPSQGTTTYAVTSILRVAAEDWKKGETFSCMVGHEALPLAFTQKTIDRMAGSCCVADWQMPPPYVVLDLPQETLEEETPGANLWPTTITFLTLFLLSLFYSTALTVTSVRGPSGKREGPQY

Sequence of FcαRI (P24071 22-287): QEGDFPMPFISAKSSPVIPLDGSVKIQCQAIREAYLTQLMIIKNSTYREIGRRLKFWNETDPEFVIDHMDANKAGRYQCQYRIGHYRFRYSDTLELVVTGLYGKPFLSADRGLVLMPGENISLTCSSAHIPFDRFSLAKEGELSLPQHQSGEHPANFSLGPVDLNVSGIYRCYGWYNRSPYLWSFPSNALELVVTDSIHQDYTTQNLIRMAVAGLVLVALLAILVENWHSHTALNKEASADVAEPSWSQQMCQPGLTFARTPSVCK
Sequence of IgA (Homo sapiens) (P01876 whole entry): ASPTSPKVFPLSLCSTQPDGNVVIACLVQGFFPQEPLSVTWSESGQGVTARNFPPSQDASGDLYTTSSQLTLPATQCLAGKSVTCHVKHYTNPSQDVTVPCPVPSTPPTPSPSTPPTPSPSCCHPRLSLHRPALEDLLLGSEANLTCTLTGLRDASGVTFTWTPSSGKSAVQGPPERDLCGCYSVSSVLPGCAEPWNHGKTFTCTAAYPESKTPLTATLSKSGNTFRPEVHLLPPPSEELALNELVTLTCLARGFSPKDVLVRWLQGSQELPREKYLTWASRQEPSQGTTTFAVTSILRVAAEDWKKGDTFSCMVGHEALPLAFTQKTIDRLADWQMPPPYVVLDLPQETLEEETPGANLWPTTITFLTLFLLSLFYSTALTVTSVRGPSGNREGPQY
Sequence of IgA1 (Homo sapiens) (P01876 whole entry): as above

Kd (IgA (Homo sapiens)): 20 nM
Kd (IgA1 (Homo sapiens)): 155 nM
Kd (IgA2 (Homo sapiens)): 20 nM
Substance: FcαRI (from UniProt P24071)
